{
  "source": "paper PMC8865655",
  "binders": {"B1": {"name": "EGFP-WTAP, Q15007 1-396 (natural protein)", "chain": "MTNEEPLPKKVRLSETDFKVMARDELILRWKQYEAYVQALEGKYTDLNSNDVTGLRESEEKLKQQQQESARRENILVMRLATKEQEMQECTTQIQYLKQVQQPSVAQLRSTMVDPAINLFFLKMKGELEQTKDKLEQAQNELSAWKFTPDSQTGKKLMAKCRMLIQENQELGRQLSQGRIAQLEAELALQKKYSEELKSSQDELNDFIIQLDEEVEGMQSTILVLQQQLKETRQQLAQYQQQQSQASAPSTSRTTASEPVEQSEATSKDCSRLTNGPSNGSSSRQRTSGSGFHREGNTTEDDFPSSPGNGNKSSNSSEERTGRGGSGYVNQLSAGYESVDSPTGSENSLTHQSNDTDSSHDPQEEKAVSGKGNRTVGSRHVQNGLDSSVNVQGSVL"}},
  "biological_target": "Cry2-mCh-METTL3 (wild type, full-length construct), Q86U44",
  "sequence (Q86U44 whole entry, the tested form may be a part)": "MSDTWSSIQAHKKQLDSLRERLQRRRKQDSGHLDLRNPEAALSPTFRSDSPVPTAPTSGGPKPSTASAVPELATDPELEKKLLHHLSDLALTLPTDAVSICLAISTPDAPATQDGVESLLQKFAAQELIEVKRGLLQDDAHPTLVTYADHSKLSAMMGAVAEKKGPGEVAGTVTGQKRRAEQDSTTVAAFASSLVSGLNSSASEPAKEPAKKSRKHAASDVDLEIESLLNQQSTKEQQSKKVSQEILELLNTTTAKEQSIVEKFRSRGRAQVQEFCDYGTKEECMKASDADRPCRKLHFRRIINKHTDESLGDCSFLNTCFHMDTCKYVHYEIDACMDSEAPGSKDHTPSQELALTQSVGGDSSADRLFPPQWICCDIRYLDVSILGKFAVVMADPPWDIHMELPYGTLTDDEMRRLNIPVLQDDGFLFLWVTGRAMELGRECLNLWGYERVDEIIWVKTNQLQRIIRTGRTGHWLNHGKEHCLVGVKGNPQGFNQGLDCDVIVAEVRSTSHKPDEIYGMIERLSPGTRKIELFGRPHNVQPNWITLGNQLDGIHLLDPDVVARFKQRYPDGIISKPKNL",
  "experiment": "FRET or BRET; FLIM-FRET in live HEK293T; EGFP fusion as donor, Cry2-mCh-METTL3 (mCherry) as acceptor; photons collected from inside condensates formed after blue light illumination (30 seconds)",
  "conditions": "remark: other sources report otherwise",
  "data": [
    {"binder": "B1", "values": [
      {"measurement": "EGFP fluorescence lifetime (FLIM-FRET)", "value": 2.01, "unit": "ns"}
    ]}
  ]
}
